From patent publication US20180134765A1 (AVIDBIOTICS, published 2018)

Target: T1, His-avitag-natural NKG2D (human, biotin on the avitag sequence (BirA))
T1 construct: also called natural NKG2D ectodomain; wild type NKG2D
T1 chain: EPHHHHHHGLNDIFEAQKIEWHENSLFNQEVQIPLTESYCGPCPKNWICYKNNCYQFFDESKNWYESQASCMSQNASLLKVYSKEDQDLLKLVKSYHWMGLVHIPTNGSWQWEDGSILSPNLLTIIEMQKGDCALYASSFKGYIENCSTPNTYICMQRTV
Assay: biolayer interferometry (Octet), biotinylated natural NKG2D ectodomain on the surface, 100 nM fusion protein

Row | Binder | Kd | koff | kon
1 | wt MICA-Fv (designed binder, His-tagged α1-α2-α3-Fv fusion, made in 293 cells; also called natural α1-α2 domain α3-Fv fusion) EPHSLRYNLTVLSWDGSVQSGFLTEVHLDGQPFLRCDRQKCRAKPQGQWAEDVLGNKTWDRETRDLTGNGKDLRMTLAHIKDQKEGLHSLQEIRVCEIHEDNSTRSSQHFYYDGELFLSQNLETKEWTMPQSSRAQTLAMNVRNFLKEDAMKTKTHYHAMHADCLQELRRYLKSGVVLRRTVPPMVQVTRSEASGGSGDRVTITCRASQDVSTAVAWYQQKPGKAPKLLIYSASFLYSGVPSRFSGSGSGTDFTLTISSLQPEDFATYYCQQSYTTPPTFGQGTKVEIKGGSSRSSSSGGGGSGGGGEVQLVESGGGLVQPGGSLRLSCAASGFTFTSTGISWVRQAPGKGLEWVGRIYPTNGSTNYADSVKGRFTISADTSKNTAYLQMNSLRAEDTAVYYCARTYGIYDLYVDYTEYVMDYWGQGTLVTVSSGGSSRSSSSGGGGSGGGGDIQMTQSPSSLSASGGSGQITVTCRASGFYPWNITLSWRQDGVSLSHDTQQWGDVLPDGQGTYQTWVATRISQGEEQRFTCYMEHSGQHSTHPVPSGKGSHHHHHH | 13.8 nM | 0.0018 s⁻¹ | 130000 M⁻¹ s⁻¹
2 | MICv27-Fv (designed binder, His-tagged α1-α2-α3-Fv fusion; also called DSM27 α1-α2-α3-Fv fusion) EPHSLRYNLTVLSWDGSVQSGFLTEVHLDGQPFLRCDRQKCRAKPQGQWAEDVLGNKTWDRETRDLTGWGKDLRMTLAHIKDQKEGLHSLQEIRVCEIHEDNSTRSSQHFYYDGELFLSQNLETLEWTMPQSSRAQTLAMNVRNFLKEDAMKTKTHYHAMRADCLSELRRYLKSGVVLRRTVPPMVQVTRSEASGGSGDRVTITCRASQDVSTAVAWYQQKPGKAPKLLIYSASFLYSGVPSRFSGSGSGTDFTLTISSLQPEDFATYYCQQSYTTPPTFGQGTKVEIKGGSSRSSSSGGGGSGGGGEVQLVESGGGLVQPGGSLRLSCAASGFTFTSTGISWVRQAPGKGLEWVGRIYPTNGSTNYADSVKGRFTISADTSKNTAYLQMNSLRAEDTAVYYCARTYGIYDLYVDYTEYVMDYWGQGTLVTVSSGGSSRSSSSGGGGSGGGGDIQMTQSPSSLSASGGSGQITVTCRASGFYPWNITLSWRQDGVSLSHDTQQWGDVLPDGQGTYQTWVATRISQGEEQRFTCYMEHSGQHSTHPVPSGKGSHHHHHH | 0.411 nM | 8.54e-05 s⁻¹ | 208000 M⁻¹ s⁻¹
3 | MICv42-Fv (designed binder, His-tagged α1-α2-α3-Fv fusion; also called DSM42 α1-α2-α3-Fv fusion) EPHSLRYNLTVLSWDGSVQSGFLTEVHLDGQPFLRCDRQKCRAKPQGQWAEDVLGNKTWDRETRDLTGWGKDLRMTLAHIKDQKEGLHSLQEIRVCEIHEDNSTRSSQHFYYDGELFLSQNLETLEWTMPQSSRAQTLAMNVRNFLKEDAMETDTHYHAMRADCLQELRRYLKSGVVLRRTVPPMVQVTRSEASGGSGDRVTITCRASQDVSTAVAWYQQKPGKAPKLLIYSASFLYSGVPSRFSGSGSGTDFTLTISSLQPEDFATYYCQQSYTTPPTFGQGTKVEIKGGSSRSSSSGGGGSGGGGEVQLVESGGGLVQPGGSLRLSCAASGFTFTSTGISWVRQAPGKGLEWVGRIYPTNGSTNYADSVKGRFTISADTSKNTAYLQMNSLRAEDTAVYYCARTYGIYDLYVDYTEYVMDYWGQGTLVTVSSGGSSRSSSSGGGGSGGGGDIQMTQSPSSLSASGGSGQITVTCRASGFYPWNITLSWRQDGVSLSHDTQQWGDVLPDGQGTYQTWVATRISQGEEQRFTCYMEHSGQHSTHPVPSGKGSHHHHHH | 0.109 nM | 3.78e-05 s⁻¹ | 347000 M⁻¹ s⁻¹
4 | MICv20-Fv (designed binder, His-tagged α1-α2-α3-Fv fusion; also called DSM20 α1-α2-α3-Fv fusion) EPHSLRYNLTVLSWDGSVQSGFLTEVHLDGQPFLRCDRQKCRAKPQGQWAEDVLGNKTWDRETRDLTAWGKDLRMTLAHIKDQKEGLHSLQEIRVCEIHEDNSTRSSQHFYYDGELFLSQNLETLEWTMPQSSRAQTLAMNVRNFLKEDAMQTDTHYRAMHADCLFELRRYLKSGVVLRRTVPPMVQVTRSEASGGSGDRVTITCRASQDVSTAVAWYQQKPGKAPKLLIYSASFLYSGVPSRFSGSGSGTDFTLTISSLQPEDFATYYCQQSYTTPPTFGQGTKVEIKGGSSRSSSSGGGGSGGGGEVQLVESGGGLVQPGGSLRLSCAASGFTFTSTGISWVRQAPGKGLEWVGRIYPTNGSTNYADSVKGRFTISADTSKNTAYLQMNSLRAEDTAVYYCARTYGIYDLYVDYTEYVMDYWGQGTLVTVSSGGSSRSSSSGGGGSGGGGDIQMTQSPSSLSASGGSGQITVTCRASGFYPWNITLSWRQDGVSLSHDTQQWGDVLPDGQGTYQTWVATRISQGEEQRFTCYMEHSGQHSTHPVPSGKGSHHHHHH | 0.0851 nM | 3.05e-05 s⁻¹ | 359000 M⁻¹ s⁻¹
5 | MICv48-Fv (designed binder, His-tagged α1-α2-α3-Fv fusion; also called DSM48 α1-α2-α3-Fv fusion) EPHSLRYNLTVLSWDGSVQSGFLTEVHLDGQPFLRCDRQKCRAKPQGQWAEDVLGNKTWDRETRDLTGWGKDLRMTLAHIKDQKEGLHSLQEIRVCEIHEDNSTRSSQHFYYDGELFLSQNLETLEWTMPQSSRAQTLAMNVRNFLKEDAMATDTHYIAMRADCLAELRRYLKSGVVLRRTVPPMVQVTRSEASGGSGDRVTITCRASQDVSTAVAWYQQKPGKAPKLLIYSASFLYSGVPSRFSGSGSGTDFTLTISSLQPEDFATYYCQQSYTTPPTFGQGTKVEIKGGSSRSSSSGGGGSGGGGEVQLVESGGGLVQPGGSLRLSCAASGFTFTSTGISWVRQAPGKGLEWVGRIYPTNGSTNYADSVKGRFTISADTSKNTAYLQMNSLRAEDTAVYYCARTYGIYDLYVDYTEYVMDYWGQGTLVTVSSGGSSRSSSSGGGGSGGGGDIQMTQSPSSLSASGGSGQITVTCRASGFYPWNITLSWRQDGVSLSHDTQQWGDVLPDGQGTYQTWVATRISQGEEQRFTCYMEHSGQHSTHPVPSGKGSHHHHHH | 0.244 nM | 0.000145 s⁻¹ | 595000 M⁻¹ s⁻¹
6 | MICv25-Fv (designed binder, His-tagged α1-α2-α3-Fv fusion; also called DSM25 α1-α2-α3-Fv fusion) EPHSLRYNLTVLSWDGSVQSGFLTEVHLDGQPFLRCDRQKCRAKPQGQWAEDVLGNKTWDRETRDLTGWGKDLRMTLAHIKDQKEGLHSLQEIRVCEIHEDNSTRSSQHFYYDGELFLSQNLETLEWTMPQSSRAQTLAMNVRNFLKEDAMETDTHYHAMRADCLSELRRYLKSGVVLRRTVPPMVQVTRSEASGGSGDRVTITCRASQDVSTAVAWYQQKPGKAPKLLIYSASFLYSGVPSRFSGSGSGTDFTLTISSLQPEDFATYYCQQSYTTPPTFGQGTKVEIKGGSSRSSSSGGGGSGGGGEVQLVESGGGLVQPGGSLRLSCAASGFTFTSTGISWVRQAPGKGLEWVGRIYPTNGSTNYADSVKGRFTISADTSKNTAYLQMNSLRAEDTAVYYCARTYGIYDLYVDYTEYVMDYWGQGTLVTVSSGGSSRSSSSGGGGSGGGGDIQMTQSPSSLSASGGSGQITVTCRASGFYPWNITLSWRQDGVSLSHDTQQWGDVLPDGQGTYQTWVATRISQGEEQRFTCYMEHSGQHSTHPVPSGKGSHHHHHH | 0.0616 nM | 2.88e-05 s⁻¹ | 467000 M⁻¹ s⁻¹
7 | MICv28-Fv (designed binder, His-tagged α1-α2-α3-Fv fusion; also called DSM28 α1-α2-α3-Fv fusion) EPHSLRYNLTVLSWDGSVQSGFLTEVHLDGQPFLRCDRQKCRAKPQGQWAEDVLGNKTWDRETRDLTGNGKDLRMTLAHIKDQKEGLHSLQEIRVCEIHEDNSTRSSQHFYYDGELFLSQNLETLEWTMPQSSRAQTLAMNVRNFLKEDAMKTKTHYHAMRADCLSELRRYLKSGVVLRRTVPPMVQVTRSEASGGSGDRVTITCRASQDVSTAVAWYQQKPGKAPKLLIYSASFLYSGVPSRFSGSGSGTDFTLTISSLQPEDFATYYCQQSYTTPPTFGQGTKVEIKGGSSRSSSSGGGGSGGGGEVQLVESGGGLVQPGGSLRLSCAASGFTFTSTGISWVRQAPGKGLEWVGRIYPTNGSTNYADSVKGRFTISADTSKNTAYLQMNSLRAEDTAVYYCARTYGIYDLYVDYTEYVMDYWGQGTLVTVSSGGSSRSSSSGGGGSGGGGDIQMTQSPSSLSASGGSGQITVTCRASGFYPWNITLSWRQDGVSLSHDTQQWGDVLPDGQGTYQTWVATRISQGEEQRFTCYMEHSGQHSTHPVPSGKGSHHHHHH | 0.33 nM | 7.03e-05 s⁻¹ | 246000 M⁻¹ s⁻¹
